The results in this text go back to ChEMBL document CHEMBL2073879, “Human monocarboxylate transporter 2 (MCT2) is a high affinity pyruvate transporter” (J Biol Chem, 1998).

Substrate in series [1]: CC(=O)C(=O)O
The experiment in a line: (§1) TP_TRANSPORTER: uptake in Xenopus laevis oocytes. The following applies: Oocyte. The series is classed as functional, cell-based.

Substrate in series [2]: CC(O)C(=O)[O-].[Na+]
The series is described as §1. The format is functional, cell-based. The following applies: Oocyte.

B1: Monocarboxylate transporter 1 (Rattus norvegicus), P53987 (protein)
chain: MPPAIGGPVGYTPPDGGWGWAVVVGAFISIGFSYAFPKSITVFFKEIEIIFSATTSEVSWISSIMLAVMYAGGPISSILVNKYGSRPVMIAGGCLSGCGLIAASFCNTVQELYFCIGVIGGLGLAFNLNPALTMIGKYFYKKRPLANGLAMAGSPVFLSTLAPLNQAFFGIFGWRGSFLILGGLLLNCCVAGSLMRPIGPQQGKVEKLKSKESLQEAGKSDANTDLIGGSPKGEKLSVFQTVNKFLDLSLFTHRGFLLYLSGNVVMFFGLFTPLVFLSNYGKSKHFSSEKSAFLLSILAFVDMVARPSMGLAANTRWIRPRVQYFFAASVVANGVCHLLAPLSTTYVGFCIYAGVFGFAFGWLSSVLFETLMDLVGPQRFSSAVGLVTIVECCPVLLGPPLLGRLNDMYGDYKYTYWACGVILIIAGLYLFIGMGINYRLVAKEQKAEEKKRDGKEDETSTDVDEKPKKTMKETQSPAPLQNSSGDPAEEESPV
For orientation: Km means the substrate concentration at which the rate is half of its maximum. As to B1, the Km in series [1] was found to be 2.5 mM; in series [2], 6 mM.

B2: Monocarboxylate transporter 2 (Homo sapiens), O60669 (protein)
chain: MPPMPSAPPVHPPPDGGWGWIVVGAAFISIGFSYAFPKAVTVFFKEIQQIFHTTYSEIAWISSIMLAVMYAGGPVSSVLVNKYGSRPVVIAGGLLCCLGMVLASFSSSVVQLYLTMGFITGLGLAFNLQPALTIIGKYFYRKRPMANGLAMAGSPVFLSSLAPFNQYLFNTFGWKGSFLILGSLLLNACVAGSLMRPLGPNQTTSKSKNKTGKTEDDSSPKKIKTKKSTWEKVNKYLDFSLFKHRGFLIYLSGNVIMFLGFFAPIIFLAPYAKDQGIDEYSAAFLLSVMAFVDMFARPSVGLIANSKYIRPRIQYFFSFAIMFNGVCHLLCPLAQDYTSLVLYAVFFGLGFGSVSSVLFETLMDLVGAPRFSSAVGLVTIVECGPVLLGPPLAGKLVDLTGEYKYMYMSCGAIVVAASVWLLIGNAINYRLLAKERKEENARQKTRESEPLSKSKHSEDVNVKVSNAQSVTSERETNI
Regarding B2, the Km in series [1] is 0.025 mM; in series [2], 6.5 mM.
